Reference: patent US20200216495A1 (ADRX, published 2020)
“And” between values parts separate entries of the source, which are not always exact repeats. Identical values can stand only once. Square brackets hold non-standard residues; d marks the D form. Ends that are not written are not given here.

Biological target: Ac-VQIINK-NH2 (SEQ ID NO: 23) (N-terminal acetyl (Ac); C-terminal amide (NH2))
Test: cell-based or functional assay

| Binder | VQIINK Inhibition IC50 |
| --- | --- |
| [dR][dI][dK][dI][dR][dW] [rikirw] | 10.8 µm |
| [dT][dI][dK][dL][dV][dW] [tiklvw] | 5.37 µm |
| [dW][dR][dE][dK][dV][dR][dW][dW] [wrekvrww] | 7.34 µm |
| [dW][dR][dL][dR][dM][dH][dW] [wrlrmhw] | 8.93 µm |
| [dW][dR][dL][dR][dI][dH][dA] [wrlriha] | 9.75 µm |
| [dR][dT][dL][dK][dI][dV][dW][dR] [rtlkivwr] | 5.65 µm |
| [dW][dR][dR][dK][dV][dR][dW][dW] [wrrkvrww] | 6.43 µm |
| [dL][dK][dA][dR][dI][dH][dY][dH] [lkarihyh] | 10 µm |
| [dM][dR][dL][dK][dV][dR][dW] [mrlkvrw] | 5.67 µm |
| [dL][dK][dV][dR][dW][dW] [lkvrww] | 6.63 µm |
| [dR][dL][dK][dV][dR][dW][dW] [rlkvrww] | 5.35 µm |
| [dW][dE][dL][dK][dV][dE][dW] [welkvew] | 11 µm |
| [dF][dK][dI][dE][dI][dE][dY][dH] [fkieieyh] | 4.03 µm |
| [dW][dL][dK][dI][dV][dW] [wlkivw] | 3.93 µm |
| [dL][dK][dI][dR][dI][dA][dY][dH] [lkiriayh] | 5.21 µm |
| [dK][dI][dR][dI][dH][dY][dH][dL] [kirihyhl] | 7.25 µm |
| [dW][dR][dL][dA][dI][dH][dW] [wrlaihw] | 6.49 µm |
| [dW][dK][dL][dK][dL][dR][dW] [wklklrw] | 5.33 µm |
| [dR][dL][dK][dI][dR][dW] [rlkirw] | 10.9 µm |
| [dW][dR][dL][dA][dV][dR][dW] [wrlavrw] | 3.89 µm |
| [dV][dK][dV][dW]G[dR][dL][dW] (not fully specified (residue 5); printed as vkvwgrlw) [vkvwgrlw] | 4.51 µm |

| Binder | VQIINK Inhibition IC50 |
| --- | --- |
| [dA][dK][dI][dR][dI][dH][dY][dH] [akirihyh] | 8.93 µm |
| [dL][dK][dI][dR][dI][dH][dR][dH] [lkirihrh] | 7.35 µm |
| [dW][dR][dT][dK][dT][dR][dW] [wrtktrw] | 13.1 µm |
| [dL][dK][dI][dR][dR][dH][dY][dH] [lkirrhyh] | 10.5 µm |
| [dK][dL][dK][dW][dL][dW] [klkwlw] | 6.93 µm |
| [dI][dR][dI][dH][dY][dH][dL][dK] [irihyhlk] | 8.69 µm |
| [dR][dR][dL][dK][dV][dR][dW][dW] [rrlkvrww] | 4.44 µm |
| [dV][dR][dW][dW][dK][dL][dR][dW] [vrwwklrw] | 4.06 µm |
| [dW][dR][dL][dR][dI][dF][dW] [wrlrifw] | 6.33 µm |
| [dR][dR][dL][dR][dI][dH][dW] [rrlrihw] | 12.1 µm |
| [dW][dR][dT][dK][dV][dR][dW] [wrtkvrw] | 4.41 µm |
| [dK][dV][dR][dW][dW][dL][dR][dW] [kvrwwlrw] | 4.35 µm |
| [dL][dK][dI][dR][dI][dH][dA] [lkiriha] | 5.3 µm |
| [dW][dR][dL][dK][dV][dR][dR][dW] [wrlkvrrw] | 7.04 µm |
| [dT][dL][dK][dI][dV][dW] [tlkivw] | 5.02 µm and 7.98 µm |
| [dW][dR][dL][dK][dV][dE][dW] [wrlkvew] | 4.36 µm |
| [dL][dK][dI][dR][dI][dE][dY][dH] [lkirieyh] | 7.95 µm |
| [dW][dR][dL][dK][dH][dR][dW] [wrlkhrw] | 13.5 µm |
| [dV][dR][dW][dW][dW][dR][dL][dK] [vrwwwrlk] | 9.47 µm |
| [dK][dL][dK][dI][dV][dW] [klkivw] | 6.95 µm |
| [dW][dR][dL][dR][dI][dH][dT] [wrlriht] | 7.32 µm |

Continued, values first:

| VQIINK Inhibition IC50 | Binder |
| --- | --- |
| 4.77 µm | [dT][dK][dI][dR][dI][dH][dY] [tkirihy] |
| 8.18 µm | [dW][dF][dL][dR][dI][dH][dW] [wflrihw] |
| 5.54 µm | [dL][dK][dI][dR][dI][dH][dA][dH] [lkirihah] |
| 5.77 µm | [dW][dR][dL][dK][dV][dR][dE][dW] [wrlkvrew] |
| 11.7 µm | [dW][dR][dM][dR][dI][dH][dW] [wrmrihw] |
| 5.12 µm | [dY][dR][dL][dK][dV][dR][dW] [yrlkvrw] |
| 4.07 µm | [dW][dR][dL][dW][dI][dH][dW][dW] [wrlwihww] |
| 14.5 µm | [dW][dR][dL][dR][dI][dH][dE] [wrlrihe] |
| 8.61 µm | [dW][dR][dL][dK][dT][dR][dW] [wrlktrw] |
| 4.77 µm | [dL][dK][dI][dA][dI][dH][dY] [lkiaihy] |
| 4.01 µm | [dF][dR][dL][dW][dI][dH][dW] [frlwihw] |
| 6.85 µm | [dE][dL][dK][dI][dV][dW] [elkivw] |
| 6.58 µm | [dW][dR][dL][dM][dI][dH][dW] [wrlmihw] |
| 7.39 µm | [dW][dR][dL][dR][dI][dH][dM] [wrlrihm] |
| 13.6 µm | [dE][dR][dL][dR][dI][dH][dW] [erlrihw] |
| 4.42 µm | [dF][dW][dL][dR][dI][dH][dW][dF] [fwlrihwf] |
| 6.61 µm | [dA][dR][dL][dR][dI][dH][dW] [arlrihw] |
| 4.13 µm | [dI][dL][dK][dI][dV][dW] [ilkivw] |
| 5.59 µm | [dR][dK][dI][dR][dI][dH][dY][dH] [rkirihyh] |
